From patent US8304236B2, “Modified biotin-binding protein” (Japan Tobacco Inc., priority 2008, dated 2012)
Changes are numbered by the printed parent chain. Numbers in names are those of the source.

B1: TM2: wild type tamavidin 2, biotin-binding protein from Pleurotus cornucopiae, amino acid sequence SEQ ID NO: 2 (protein, listed as Pleurotus cornucopiae)
chain: MSDVQSSLTGTWYNELNSKMELTANKDGTLTGKYLSKVGDVYVPYPLSGRYNLQPPAGQGVALGWAVSWENSKIHSATTWSGQFFSESSPVILTQWLLSSSTARGDVWESTLVGNDSFTKTAPTEQQIAHAQLHCRAPRLK
B2: TM2 D40NR104EK141E: TM2 mutant having mutation of D40N and R104EK141E; SEQ ID NO: 24 (protein)
chain: B1 chain with D40N, R104E, K141E
modifications: Synthetic TM2 D40NR104EK141E

Tests used:
human serum protein [1] = assay: Non-specific adsorption of serum protein to HALU TM2-immobilized magnetic beads; type: binding; conditions: human serum diluted 800 times, anti-human IgG detection
Protocol: In this Example, non-specific adsorption of serum protein to HALU TM2-immobilized magnetic beads was investigated.
TM2 D40NR104E and TM2 D40NR104EK141E were bonded covalently to magnetic beads (Dynabeads M-270 Carboxylic Acid, Dynal) by the process described in paragraph 1-9) of Example 1, and the amount of human serum protein adsorbed to the beads was measured. The amount of each HALU TM2 immobilized to the magnetic beads was adjusted to 10 μg/100 μL beads. Human serum (CHEMICON) was diluted 800 times with a PBS buffer, and the HALU TM2-immobilized magnetic beads (50 μL) to which a certain amount of protein was immobilized were added to the diluted human serum, followed by mixing by turning the tube containing the beads upside down at room temperature for 15 minutes. The magnetic beads were washed with a PBS buffer containing 0.1% Tween 20 (PBST, 500 μL) four times and were then subjected to antigen-antibody reaction at room temperature for 15 minutes with HRP-labeled anti-human IgG mouse antibody (100 μL) diluted 5000 times with PBST containing 0.5% BSA. Subsequently, the beads were washed with PBST (500 μL) five times, followed by color development with 1-Step Ultra TMB-ELISA (100 μL). After termination of the color development with 2M sulfuric acid (100 μL), the magnetic beads were collected with a magnet. The absorbance at 450 nm of the supernatant was measured with an Infinite 200 microplate reader.

Salmon sperm DNA = assay: Non-specific binding to DNA (membrane-adsorbed DNA, biotinylated HRP, ECL); conditions: salmon sperm DNA 10 μg to 1 μg on membrane, 25 μg/mL protein
Protocol: Salmon sperm DNA diluted stepwise from 10 μg to 1 μg with 2×SSC buffer was denatured with an alkali and was adsorbed to Hybond N+membrane (Amersham Biosciences) using Bio-Dot SF (BIO-RAD). After blocking the membrane with 5×Denhardt's solution (0.1% BSA, 0.1% ficoll, 0.1% polyvinylpyrrolidone), the membrane was immersed in 25 μg/mL of low-pI TM2 or the wild-type TM2 at room temperature for 90 minutes. Then, the membrane was washed with a TUBS buffer (TBS buffer containing 0.05% Tween 20) at room temperature for 5 minutes three times. The membrane was blocked with a TBS buffer containing 3% skimmed milk and 0.1% Tween 20 for 1 hour. The membrane was subjected to a reaction with biotinylated horseradise peroxidase (Vector) diluted 5000 times with a TBS buffer containing 3% skimmed milk and 0.1% Tween 20 at room temperature for 1 hour. The membrane was washed with a TBS buffer containing 0.1% Tween 20 again and was then shaken in a solution that is a mixture of reagent 1 and reagent 2 of ECL (Amasham) in the same volumes, followed by detection of the luminol reaction with Las-3000 (FUJIFILM).
The non-specific binding of HALU TM2 to DNA was analyzed by the process in paragraph 1-11) of Example 1.

human serum protein [2] = assay: Non-specific adsorption of low-pI TM2 to human serum protein-immobilized magnetic beads; type: binding; conditions: wild type TM2 = 100
Protocol: In this embodiment, non-specific binding to human serum was investigated as non-specific adsorption of low-pI TM2 to serum protein-immobilized magnetic beads. Specifically, in order to investigate the non-specific binding of low-pI TM2, the amount of low-pI TM2 adsorbed to magnetic beads to which human serum protein was covalently bonded was measured. TM2 K26A, TM2 K73Q, TM2 R104E, TM2 K141E, and TM2 R104EK141E, which were highly expressed in Escherichia coli, were used as the low-pI TM2 to be investigated.
Human serum protein and magnetic beads were bound to each other as follows. Magnetic beads having surfaces coated with carboxyl groups (Dynabeads M-270 Carboxylic Acid, Dynal, 210 μL) were washed with 0.01 N sodium hydroxide (210 μL) for 10 minutes and then with ultrapure water (210 μL) for 10 minutes three times. To the washed magnetic beads, 1-ethyl-3-(3-dimethylaminopropyl)carbodiimide hydrochloride (EDC, PIERCE) dissolved in cooled ultrapure water was added into a final concentration of 0.2 M, and the mixture was shaken at room temperature for 30 minutes. Then, the magnetic beads were washed with cooled ultrapure water (210 μL) and then with 50 mM MES buffer (pH 5.0, 210 μL).
To the magnetic beads, 1 mg/mL human serum protein (CHEMICON, 210 μL) dialyzed with 50 mM MES buffer (pH 5.0) was added. The mixture was shaken at room temperature for 30 minutes to covalently bind the human serum protein to the magnetic beads. The magnetic beads were collected with a magnet to remove the supernatant. The unreacted active groups on the beads were eliminated with 50 mM tris buffer (pH 7.0, 210 μL), and then the magnetic beads were blocked with a PBS buffer (420 μL) containing 0.5% BSA and 0.1% Tween 20. The magnetic beads were suspended in a PBS buffer (210 μL) to obtain human serum protein-immobilized magnetic beads.
The magnetic beads (7 μL) and 0.56 μg/mL of each low-pI TM2 (100 μL) were mixed for reaction at room temperature for 1 hour. The magnetic beads were collected with a magnetic, and the supernatant was removed. After washing with 20 mM potassium phosphate buffer (500 μL) containing 500 mM sodium chloride, the magnetic beads were mixed with 20 μL of 2×SDS sample buffer (250 mM Tris-HCl, pH 6.8, 20% 2-mercaptoethanol, 20% SDS, 20% glycerol), followed by heating at 95° C. for 20 minutes to dissociate the low-pI TM2 from the magnetic beads.
This sample was subjected to SDS-PAGE and then western blotting analysis to determine the amount of the low-pI TM2. Anti-tamavidin 2 rabbit antibody and alkaline phosphatase-labeled anti-rabbit IgG goat antibody were used as the primary antibody and the secondary antibody, respectively. The bands were detected with Alkaline Phosphatase Substrate Kit II <VECTOR Black> (VECTRO) and were quantified with Las-3000 (FUJIFILM).

Row | Molecule | Non-specific binding to serum protein (A450) (human serum protein [1]) | Non-specific binding of DNA (Salmon sperm DNA) | Non-specific binding of DNA (Salmon sperm DNA; listed as wild type TM2) | Non-specific binding of serum protein (%) (human serum protein [2]) | Non-specific binding to serum protein (A450) (human serum protein [1]; listed as D40NR104EK141E)
1 | B1 | 0.67 | weakly bound | weakly bound | 100% | –
2 | B2 | low | lower than the detection limit | – | – | 0.45
